From US11994512B2, “Single-cell genomic methods to generate ex vivo cell systems that recapitulate in vivo biology with improved fidelity” (Massachusetts Institute of Technology, priority 2018, dated 2024)

System: intracellular proteome of ENR+CD and ENR organoids
Experiment: LC-MS/MS TMT proteomics of ENR+CD versus ENR organoids
Type: cell-based, C57BL/6 mice
Conditions: for Average logFC: ENR+CD versus ENR organoids, sample pairs in aggregate (n=4, 2 technical replicates from two biological donors); for M1-1 Log2 Median Normalized / M1-2 Log2 Median Normalized / M2-1 Log2 Median Normalized / M2-2 Log2 Median Normalized: protein abundance ratio ENR+CD versus ENR organoids, LC-MS/MS TMT proteomics; for M1-1 Log2 Median Normalized: sample pair M1-1; for M1-2 Log2 Median Normalized: sample pair M1-2; for M2-1 Log2 Median Normalized: sample pair M2-1; for M2-2 Log2 Median Normalized: sample pair M2-2; for change: up = enriched in ENR+CD, down = enriched in ENR, FDR<0.05 and log fold change cut-off

B1: Q62431 (protein, UniProt Q62431 1-601, looked up)
chain: MKLQAVMETLIQRQQRARQELEARQAPPPPPPEPTGVRARTTMTDEDREPENARMHRTQMAALAAMRAAAAGLGHPSSPGGSEDGPPISGDEDTAREGTLSSPALHGSVLEGAGHAEGDRHLMDVGSDDDDTKSKWEEQELEELGEEEEEEEEEDDFEEEEEEEEGLGPPESASLGTAGLFTRKAPPAQAFRGDGGPRMLSGPERLGPGPAHPSHMASQMPPPDHGDWTFEEQFKQLYELDADPKRKEFLDDLFSFMQKRGTPVNRIPIMAKQVLDLFMLYVLVTEKGGLVEVINKKLWREITKGLNLPTSITSAAFTLRTQYMKYLYPYECERRGLSSPNELQAAIDSNRREGRRQSFGGSLFAYSPSGAHSMLPSPKLPVTPLGLAASTNGSSITPAPKIKKEEDSAIPITVPGRLPVSLAGHPVVAAQAAAVQAAAAQAAVAAQAAALEQLREKLESTEPPEKKMALVADEQQRLMQRAVQQSFLAMTAQLPMNIRINSQASESRQDSAVSLTSANGSNSISMSVEMNGIVYTGVLFAQPPPPTAPSAPGKGGVSSIGTNTTTGSRTGASGSTVSGGQVGLPGVSTPTMSSTSNNSLP
modifications: full-length
Average logFC: 1.251 | M1-1 Log2 Median Normalized: 1.672 | M1-2 Log2 Median Normalized: 1.343 | M2-1 Log2 Median Normalized: 1.2465 | M2-2 Log2 Median Normalized: 0.741 | change: up

B2: Q60673 (protein, UniProt Q60673 1-979, looked up)
chain: MRRPRRPGGSGGSGGSGGLRLLVCLLLLSGRPGGCSAISAHGCLFDRRLCSHLEVCIQDGLFGQCQAGVGQARPLLQVTSPVLQRLQGVLRQLMSQGLSWHDDLTQHVISQEMERIPRLRPPEPHPRDRSGLVPRKPGPAGELLTQGNPTGSSPAAQGFPRPAGGRSWGGSPLSSLQAELLPPLLEHLLMPPQPPHPALTYEPALLQPYLFHQFGSRDGSRGSESSSGVVGVGHLSKAEGPALFSRSASKAILGTHSGHSFGDLTGPSPAQLFQDSGLLYMAQELPVPGRARAPRLPENGGNRAEDSSEGHEEEVLGGRGEKSPPQAAQPELSLQRLTAVLAGYGVELRQLTPEQFSTLLTLLQLLPKGTGRNLEGAVNVGGADVKKTIQQMQRGDPAEALPPTPSLPGYLTASPASSEVQQVLSPGFPEPPHTPSPLGSSSVLLEKKSPLGQSQPTVVGRPSARPSAEEYGYIVTDQKPLSLVAGVRLLEILAEHVHMSSGSFINISVVGPAVTFRIRHNEQNLSLADVTQQAGLVKSELEAQTGLQILQTGVGQREEAAEVLPRQAHGISPMRSVLLTLVALAGVAGLLVALAVALCMRHHSRQRDKERLAALGPEGAHGDTTFEYQDLCRQHMATKSLFNRAEGQPEPSRVSSVSSQFSDAAQASPSSHSSTPSWCEEPAQANMDISTGHMILAYMEDHLRNRDRLAKEWQALCAYQAEPNTCAAAQDESNIKKNRHPDFLPYDHARIKLKVESSPSRSDYINASPIIEHDPRMPAYIATQGPLSHTIADFWQMVWESGCTVIVMLTPLVEDGVKQCDRYWPDEGSSLYHVYEVNLVSEHIWCEDFLVRSFYLKNLQTQETRTLTQFHFLSWPAEGTPASTRPLLDFRRKVNKCYRGRSCPIIVHCSDGAGRTGTYILIDMVLNRMAKGVKEIDIAATLEHVRDQRPGLVRSKDQFEFALTAVAEEVNAILKALPQ
modifications: full-length
Average logFC: 1.189 | M1-1 Log2 Median Normalized: 1.189 | M1-2 Log2 Median Normalized: 1.249 | M2-1 Log2 Median Normalized: 0.8005 | M2-2 Log2 Median Normalized: 1.265 | change: up

B3: Q64338 (protein, UniProt Q64338 1-706, looked up)
chain: MESPTKEIEEFESNSLKHLQPEQIEKIWLRLRGLRKYKKTSQRLRSLVKQLERGEASVVDLKKNLEYAATVLESVYIDETRRLLDTEDELSDIQSDAVPSEVRDWLASTFTRQMGMMLRRSDEKPRFKSIVHAVQAGIFVERMYRRTSNMVGLSYPPAVIDALKDVDTWSFDVFSLNEASGDHALKFIFYELLTRYDLISRFKIPISALVSFVEALEVGYSKHKNPYHNLMHAADVTQTVHYLLYKTGVANWLTELEIFAIIFSAAIHDYEHTGTTNNFHIQTRSDPAILYNDRSVLENHHLSAAYRLLQEDEEMNILVNLSKDDWREFRTLVIEMVMATDMSCHFQQIKAMKTALQQPEAIEKPKALSLMLHTADISHPAKAWDLHHRWTMSLLEEFFRQGDREAELGLPFSPLCDRKSTMVAQSQVGFIDFIVEPTFTVLTDMTEKIVSPLIDESSQTGGTGQRRSSLNSINSSDAKRSGVKSSGSDGSAPINNSVIPVDYKSFKATWTEVVQINRERWRAKVPKEEKAKKEAEEKARLAAEEKQKEMEAKSQAEQGTTSKGEKKTSGEAKSQVNGTRKGDNPRGKNSKGEKAGEKQQNGDLKDGKNKADKKDHSNTGNESKKTDGTKKRSHGSPAPSTSSTSRITLPVIKPPLRHFKRPAYASSSYAPSVPKKTDDHPVRYKMLDQRIKMKKIQNISHHWNKK
modifications: full-length
Average logFC: 1.157 | M1-1 Log2 Median Normalized: 0.73 | M1-2 Log2 Median Normalized: 0.722 | M2-1 Log2 Median Normalized: 1.3705 | M2-2 Log2 Median Normalized: 1.805 | change: up

B4: Q61391 (protein, UniProt Q61391 1-750, looked up)
chain: MGRSESQMDITDINAPKPKKKQRWTPLEISLSVLVLLLTIIAVTMIALYATYDDGICKSSDCIKSAARLIQNMDASVEPCTDFFKYACGGWLKRNVIPETSSRYSNFDILRDELEVILKDVLQEPKTEDIVAVQKAKTLYRSCINESAIDSRGGQPLLKLLPDIYGWPVASDNWDQTYGTSWTAEKSIAQLNSKYGKKVLINFFVGTDDKNSTQHIIHFDQPRLGLPSRDYYECTGIYKEACTAYVDFMISVARLIRQEQSLPIDENQLSLEMNKVMELEKEIANATTKPEDRNDPMLLYNKMTLAKLQNNFSLEVNGKSFSWSNFTNEIMSTVNINIQNEEEVVVYAPEYLTKLKPILTKYSPRDLQNLMSWRFIMDLVSSLSRNYKESRNAFRKALYGTTSETATWRRCANYVNGNMENAVGRLYVEAAFAGESKHVVEDLIAQIREVFIQTLDDLTWMDAETKKKAEEKALAIKERIGYPDDIISNENKLNNEYLELNYREDEYFENIIQNLKFSQSKQLKKLREKVDKDEWISGAAVVNAFYSSGRNQIVFPAGILQPPFFSAQQSNSLNYGGIGMVIGHEITHGFDDNGRNFNKDGDLVDWWTQQSANNFKDQSQCMVYQYGNFSWDLAGGQHLNGINTLGENIADNGGIGQAYRAYQNYVKKNGEEKLLPGLDLNHKQLFFLNFAQVWCGTYRPEYAVNSIKTDVHSPGNFRIIGTLQNSAEFADAFHCRKNSYMNPERKCRVW
modifications: full-length
Average logFC: −1.133 | M1-1 Log2 Median Normalized: −0.83 | M1-2 Log2 Median Normalized: −1.694 | M2-1 Log2 Median Normalized: 1.3345 | M2-2 Log2 Median Normalized: −0.675 | change: down

B5: Q64176 (protein, UniProt Q64176 1-562, looked up)
chain: MCLSALILVSLAAFTAGAGHPSSPPMVDTVQGKVLGKYISLEGFTQPVAVFLGVPFAKPPLGSLRFAPPQPAEPWSSVKNATSYPPMCFQDPVTGQIVNDLLTNRKEKIPLQFSEDCLYLNIYTPADLTKSDRLPVMVWIHGGGLVLGGASTYDGLVLSTHENVVVVVIQYRLGIWGFFSTGDEHSRGNWGHLDQVAALHWVQDNIAKFGGDPGSVTIFGESAGGESVSVLVLSPLAKNLFQRAISESGVALTAGLVKKNTRPLAEKIAVISGCKNTTSAAMVHCLRQKTEEELLGTTLKLNLFKLDLHGDSRQSHPFVPTVLDGVLLPKMPEEILAEKNFNTVPYIVGINKQEFGWILPTMMNYPPSDVKLDQMTAMSLLKKSSFLLNLPEDAIAVAIEKYLRDKDYTGRNKDQLLELIGDVVFGVPSVIVSRGHRDAGAPTYMYEFQYSPSFSSEMKPDTVVGDHGDEIYSVFGAPILRGGTSEEEINLSKMMMKFWANFARNGNPNGQGLPHWPEYDQKEGYLQIGATTQQAQKLKEKEVAFWTELLAKKQLPTEHTEL
modifications: full-length
Average logFC: −1.21 | M1-1 Log2 Median Normalized: −1.21 | M1-2 Log2 Median Normalized: −1.557 | M2-1 Log2 Median Normalized: −1.2065 | M2-2 Log2 Median Normalized: −1.062 | change: down

B6: Q62395 (protein, UniProt Q62395 1-81, looked up)
chain: METRALWLMLLVVLVAGSSGIAADYVGLSPSQCMVPANVRVDCGYPSVTSEQCNNRGCCFDSSIPNVPWCFKPLQETECTF
modifications: full-length
Average logFC: 1.185 | M1-1 Log2 Median Normalized: 1.037 | M1-2 Log2 Median Normalized: 1.294 | M2-1 Log2 Median Normalized: 0.4235 | M2-2 Log2 Median Normalized: 1.984 | change: up

B7: Q61263 (protein, UniProt Q61263 1-540, looked up)
chain: MSLRNRLSKSGENPEQDEAQKNFMDTYRNGHITMKQLIAKKRLLAAEAEELKPLFMKEVGCHFDDFVTNLIEKSASLDNGGCALTTFSILEEMKKNHRAKDLRAPPEQGKIFISRQSLLDELFEVDHIRTIYHMFIALLILFVLSTIVVDYIDEGRLVLEFNLLAYAFGKFPTVIWTWWAMFLSTLSIPYFLFQRWAHGYSKSSHPLIYSLVHGLLFLVFQLGVLGFVPTYVVLAYTLPPASRFILILEQIRLIMKAHSFVRENIPRVLNAAKEKSSKDPLPTVNQYLYFLFAPTLIYRDNYPRTPTVRWGYVAMQFLQVFGCLFYVYYIFERLCAPLFRNIKQEPFSARVLVLCVFNSILPGVLILFLSFFAFLHCWLNAFAEMLRFGDRMFYKDWWNSTSYSNYYRTWNVVVHDWLYYYVYKDLLWFFSKRFKSAAMLAVFALSAVVHEYALAICLSYFYPVLFVLFMFFGMAFNFIVNDSRKRPIWNIMVWASLFLGYGLILCFYSQEWYARQHCPLKNPTFLDYVRPRTWTCRYVF
modifications: full-length
Average logFC: 1.308 | M1-1 Log2 Median Normalized: 1.563 | M1-2 Log2 Median Normalized: 2.15 | M2-1 Log2 Median Normalized: 1.0245 | M2-2 Log2 Median Normalized: 0.494 | change: up
